# According to US20230035659A1, “Compositions and Methods for TTR Gene Editing and Treating ATTR Amyloidosis Comprising a Corticosteroid or Use Thereof” (Intellia Therapeutics, Inc., priority 2019, published 2023):
# Strand notation (5' to 3'): a small letter for the sugar, then the base; units joined by * are phosphorothioate-linked, units joined directly phosphodiester-linked; [ ] holds rarer units or linkages, { } end groups; capitals alone tell only the bases. m = 2'-O-methyl; r = 2'-OH (RNA)
# System: mouse TTR
# Test: Serum mouse TTR (ELISA) after LNP dosing of mice with murine TTR
# Assay type: in vivo
# Settings: wild type CD-1 mice; LNP 45:44:9:2, N:P 6; 1, 0.3, 0.1, 0.03, 0.01 mg/kg
# Procedure: Unless otherwise noted, CD-1 female mice, ranging from 6-10 weeks of age were used in each study. Animals were weighed and grouped according to body weight for preparing dosing solutions based on group average weight. LNPs were dosed via the lateral tail vein in a volume of 0.2 mL per animal (approximately 10 mL per kilogram body weight). […] Body weight was measured at twenty-four hours post-administration, and animals were euthanized at various time points by exsanguination via cardiac puncture under isoflourane anesthesia. Blood was collected into serum separator tubes or into tubes containing buffered sodium citrate for plasma as described herein. […]
# Blood was collected and the serum was isolated as indicated. The total mouse TTR serum levels were determined using a Mouse Prealbumin (Transthyretin) ELISA Kit (Aviva Systems Biology, Cat. OKIA00111); rat TTR serum levels were measured using a rat specific ELISA kit (Aviva Systems Biology catalog number OKIA00159); human TTR serum levels were measured using a human specific ELISA kit (Aviva Systems Biology catalog number OKIA00081); each according to manufacture's protocol. […] The absorbance of the contents was measured on the Spectramax M5 plate reader with analysis using SoftmaxPro version 7.0 software. […]
molecule,measurement,value
"G000502: TTR Cyno specific sgRNA modified sequence, SEQ ID NO: 114; guide sequence of CR000689; cross homologous between mouse and cyno (nucleic acid) guide: mA*mC*mA*rCrArArArUrArCrCrArGrUrCrCrArGrCrGrGrUrUrUrUrArGrAmGmCmUmAmGmAmAmAmUmAmGmCrArArGrUrUrArArArArUrArArGrGrCrUrArGrUrCrCrGrUrUrArUrCrAmAmCmUmUmGmAmAmAmAmAmGmUmGmGmCmAmCmCmGmAmGmUmCmGmGmUmGmCmU*mU*mU*mU","serum mouse TTR levels, dose response",dose response
